Test [1] has as its target truncated human CD19 (hCD19t, CD19t), 323 amino acids, 233 amino acids of the cytoplasmic domain removed (human) (UniProt P15391). Briefly: cell-based or functional assay.
Test [2] has as its target human CD19 (hCD19, hCD19 variant 2), expressed on U87MG cells from the sRRVe-F4-hCD19 vector (human) (UniProt P15391). Briefly: cell-based or functional assay.

The values that follow come from US20230265458A1.

Turning to “anti-CD19 CAR-T (chimeric antigen receptor against CD19 on T cells)”, in test [1], the decrease in cell viability, WST-1 assay, E:T ratio 0.5:1, first day; U87MG cells transfected with sRRVgp-F4-hCD19t/sRRVe-F4-TK worked out at 54.3%; the decrease in cell viability, WST-1 assay, E:T ratio 0.5:1, first day; U87MG cells transfected with sRRVgp-F4-yCD/sRRVe-F4-hCD19t is 58.2%; the decrease in cell viability, WST-1 assay, E:T ratio 1:1, within 1 day; U87MG cells transfected with sRRVgp-F4-hCD19t/sRRVe-F4-TK came out at 24.8%; the decrease in cell viability, WST-1 assay, E:T ratio 1:1, within 1 day; U87MG cells transfected with sRRVgp-F4-yCD/sRRVe-F4-hCD19t amounted to 20%. Also, in test [2], the decrease in cell viability, WST-1 assay, E:T ratio 0.5:1, first day; U87MG cells transfected with sRRVgp-F4-DsRed/sRRVe-F4-hCD19 is 54.9% and the decrease in cell viability, WST-1 assay, E:T ratio 1:1, within 1 day; U87MG cells transfected with sRRVgp-F4-DsRed/sRRVe-F4-hCD19 worked out at 25.8%.
